Molecular target: SARS-CoV-2 spike receptor-binding domain (RBD) protein (SARS-CoV-2, UniProt P0DTC2 319-541)
Experiment: BLI

B1: AB-009620 (antibody, V domains shown)
VH: QITLKESGPTLVKPTQTLTLTCTFSGFSLSTSGVGVGWIRQPPGKALEWLALIYWDDDKRYSPSLKSRLTITKDTSKNQVVLTMTNMDPVDTATYYCAHHEVATVFDYWGQGTLVTVSS
VL: QSALTQPASVSGSPGQSITISCTGTSSDVGAYNYVSWYQQHPGKAPKLMIYEVSNRPSGVSNRFSGSKSGNTASLTISGLQAEDEADYYCSSYTSSSTVFGGGTKLTVL
**Q.** How did the Kd turn out when B1 was run?
**A.** Its Kd is 5.99 nM.

From patent publication US20240327505A1 (published 2024)
